Experimental findings from article PMC3278721 (Molecular Cell, 2012) are described below.

In assay [1] the target is T1, Maltose Binding Protein fused to ROS1 full-length (MBP-ROS1) (Arabidopsis, UniProt Q9SJQ6 1-1393).
T1 sequence (looked up): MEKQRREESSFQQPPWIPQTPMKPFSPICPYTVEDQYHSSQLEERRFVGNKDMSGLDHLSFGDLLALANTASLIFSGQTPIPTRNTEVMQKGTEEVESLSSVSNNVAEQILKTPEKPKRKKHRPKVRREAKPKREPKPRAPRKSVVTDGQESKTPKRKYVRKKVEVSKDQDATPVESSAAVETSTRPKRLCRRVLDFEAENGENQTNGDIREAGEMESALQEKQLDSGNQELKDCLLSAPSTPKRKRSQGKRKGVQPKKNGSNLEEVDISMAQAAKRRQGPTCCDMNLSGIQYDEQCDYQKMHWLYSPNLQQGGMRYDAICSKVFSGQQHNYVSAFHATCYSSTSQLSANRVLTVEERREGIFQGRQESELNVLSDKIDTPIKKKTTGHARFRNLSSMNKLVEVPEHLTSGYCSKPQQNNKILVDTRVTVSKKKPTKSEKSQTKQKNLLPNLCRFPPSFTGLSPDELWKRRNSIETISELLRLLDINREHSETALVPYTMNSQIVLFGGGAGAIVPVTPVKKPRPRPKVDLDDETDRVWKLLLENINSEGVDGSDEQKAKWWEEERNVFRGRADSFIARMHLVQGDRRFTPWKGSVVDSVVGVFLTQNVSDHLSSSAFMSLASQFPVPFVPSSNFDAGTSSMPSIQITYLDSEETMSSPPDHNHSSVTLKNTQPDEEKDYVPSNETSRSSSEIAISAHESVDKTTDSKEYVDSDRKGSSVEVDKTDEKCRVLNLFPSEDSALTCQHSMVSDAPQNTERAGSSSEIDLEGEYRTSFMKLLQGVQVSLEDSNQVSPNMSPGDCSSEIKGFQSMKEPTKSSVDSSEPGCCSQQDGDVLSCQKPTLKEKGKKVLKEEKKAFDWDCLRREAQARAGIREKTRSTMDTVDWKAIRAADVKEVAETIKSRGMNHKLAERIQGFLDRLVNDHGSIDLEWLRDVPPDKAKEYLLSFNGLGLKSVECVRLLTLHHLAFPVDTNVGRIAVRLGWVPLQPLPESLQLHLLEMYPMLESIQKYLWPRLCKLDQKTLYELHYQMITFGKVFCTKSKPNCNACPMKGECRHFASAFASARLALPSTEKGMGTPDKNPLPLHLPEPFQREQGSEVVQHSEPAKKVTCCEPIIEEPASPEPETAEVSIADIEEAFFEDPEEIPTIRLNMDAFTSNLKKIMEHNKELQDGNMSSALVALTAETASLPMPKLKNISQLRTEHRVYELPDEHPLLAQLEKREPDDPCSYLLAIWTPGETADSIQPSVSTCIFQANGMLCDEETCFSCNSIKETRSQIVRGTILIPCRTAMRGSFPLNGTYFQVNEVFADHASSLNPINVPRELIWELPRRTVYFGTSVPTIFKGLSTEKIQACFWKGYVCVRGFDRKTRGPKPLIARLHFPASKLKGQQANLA
The assay is described as follows: pull-down.

The target of assay [2] is T2, Purified full-length ROS1 fused to His6-tag (FL-ROS1) (Arabidopsis, UniProt Q9SJQ6 1-1393).
T2 sequence (looked up): T1 sequence (looked up)
Briefly: pull-down.

B1: His-tagged ZDP (Arabidopsis thaliana zinc finger DNA 3'-phosphoesterase) (enzyme, UniProt Q84JE8 1-694, looked up)
chain: MITVAPFVSLRFQFPLYIINRSTLFFRERTQYLVYNTCHILRTTAKTMPVVAEYAKSNRSSCRSCSNKIAVKSLRLGLISKGRGGVDMTRWHHFDCFPTDSESIASVDDIQGLSALEKEDQDALTKLVEQCGKVPAKKPDEKKGKAKKHIMGPKGLTKAATSSKVIADNAKSSRSSCNRCSQTIVSKDLRVGLVTEDSRGFDITRWHHLGCFPIDFHPIDSVEDIGGYSSLEKGDQMELKYLAEVNKKDKTLIDDVQKMDEGDDEAIADNELTEETKKGKHSPVAKLVEQPGEPAKEDEDEESKKPASDEISEQKTKDVKNSPDSSKVISEYAKSSRSTCKKCSQTIAAKELRLGLVTRNFRGFDMKQWHHLGCFPVDSDPIVSVEDIGGFSELQSGDQDALKELVQQCGKQTLVDKMDEDNDDTEAKIKLTEETNKRKHSEVGEMVEEDESLTKAKQQMAKTHKVNMSESTSQVEVEAEITLSASDVKDKYRDANLLPKWKAFETVIFLERDDGLNDSEKIAAFDFDGCLAKTSVKIVGADAWSLMYPSIPEKLQSLHDQGYKLVIFTNESNIDRWKNKRQAAVDSKIGRLNSFIERVKVPIQVFIACGVSSSGGKGGKDDLYRKPKAGMWQLMKKHFNSGIAIDMDKSFYVGDAAGRKMDHSDADIKFAQASGLKFFTPEEYFIPSSTSPGT
Regarding B1, in assay [1], the binding result is “binds”.

B2: MBP-ZDP (enzyme, Arabidopsis thaliana, UniProt Q84JE8 1-694, looked up)
chain: B1 chain
With B2, in assay [2], the binding result is given as “binds”.
